Assay: soluble fraction after stress (log2 fold change); higher = more stays soluble; pooled small domains, quantitative proteomics
Details: stress: pH 4
In short: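 Values are on a log2 scale, where higher means more of the domain stayed soluble after pH 4 stress. They are fold changes in the soluble amount of each domain from pooled custom libraries, measured by high-throughput quantitative proteomics. The fold change is taken to reflect aggregation propensity.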

Sequence | soluble fraction (log2)
HMKTALQENVRAYRLERKWTQQALAEALEVSVGAVSKWESGVSRPELETLMRLAELFGVSTDALLGF | -1.09
HMVGVDMTVKEEVGKEGVTFTDLRPAGKVEIGNDIYDAVSNTGAFIQKGEKVKIIKYQAGQVYVEKLV | 0.187
HMRIVQTDYRNFLSQVESGAVRSVQIDETQIRYTALDSGGKEIVYNTGKVDDPGLVNRLYDAGVEFSQVIP | -1.23
HMPVEFVKISIKPGHPWENQFVRDIVSLPDLLMVLILRGEERIIPNGNTKILVGDKIVLSALSPG | -1.4
HMRKKIIAQTLEEIRKSKGYSQKQVAAFIKVKPTTYNTYESGRTEPPAEILVRLSYLYRTPVDTLVQRDR | 0.226
HMTGINMSYEEYKAMADIIVPLIKAGHSPYHIVTNHPELNISEKTLYNYIENGIFREFGLLDINL | -1.91
HMAPVLTRREHEVLHLLTDGLDNRTIARNLFISEATVKFHLHNIMGKFGVHRRAALVSTALRG | -0.182
HMGIVVDGTMTLEGVAERYGMSVGELARVIGVPPEYSNERLGRLRKSYEFEMDDIRIYIIQKQ | -1.31
HMNSVSIAPEMLNWVIAHIQMNSLPKQIVEHLTAWISGQKEPTFNQIEKVSRATGIPLGYFFLEQPPKE | -1.02
HMQQYLDAYDKALAFGIAMNKLPSYENLTLDDKEDVDKLKEIYDGMSNYEKTFVAKDFTDKLDRYVKRIE | 0.144
HMRLHSSGEDYLKAIFILEAQHSSVRSVEVAEYMNVSKASVSHAVALLKKNGFLKMNQDYDLTER | -0.906
HMTNATVGQIKKLARASILYGNSNLSGNRYTYKANTTVTILQNISSNVDKIRVNVTGRVAYIDNSNYSSST | 0.34
HMTRAEVQALLEKQAKDFEVEVVHRGWKKTVQTPEFAGWYSQQPAEIKALAESDDPAVAIRMLDLFSGTK | -0.644
HMDKSFLQSLHLIALGIVKNQMDPWELVNGWVEYYLKNKDKYIDHPNLKAVAVLKMKGLFIDHFRKS | -2.21
HMSTALTPLTTREREVLALMAEGLTNSGIAARLVLTDRTVETHVSRILHKLGLGETTTNEHRRVLAVLRYL | -0.716
HMSVLQGLIESFKAGDRNLYEVAERLNVTEPFLAEALKDYRARFPKGVQVDNFWISFRPYLTIAEV | -0.886
HMESLNDRIKLVFKDSGLTQMDISKRLNIAQSSVSGIISGKANPSKRTLADIADRFDVNLEWLRDGTGPMK | 0.199
HMDREILWTNYVAARKQEFIASSIDTIGAEYLDNRRFWDTQFEREWTIIAERLASGFGLTDDILSIVGSDF | -2.71
HMSFGFFELKSSDTDKLFAYLNNNEHFGNIKEENGLVTAFLTSELDAQTLNKLLFDNGIIASHLVKRK | -1.82
HMNLQGIISQKAIVTQTIEPYETGVAKLNGEEWTAMSKDETRIEAGKLVEVVAIEGVKLIVKEVS | -0.295
HMELEENTERVLNILIENDIISENDIAEKLEVKINGARKALYKLKEVGFVEYTKERDEEKKWWYIYFWKLN | -0.36
HMIDAKTTLQELTQKSGKKPEYRLIKIEGPDHLRRFTVEVFIDGQSMGTGTGHSKKEAEQNAANFALKNLQ | ≥ 0.43
HMGTRIQAVMEDIQSRIAARTYLPGTRLPSVRAQAQAMQVSVSTVVEAYERLAAEGVIASRPGSGFYVAGP | ≥ 0.43
HMRAVPSIAFVTQKLIEQGVTMEQLVRSLLLDHEEYENDDSLERTADELFGKARMIISNYTPE | -1.04
HMSQDEKITNYIYEGNKNTQTEAFVEAEKSYRKALSLSPEKPEALYNLGNTHFLDKQYDEASQRFF | -0.111

Sequence | soluble fraction (log2)
HMVKKYEKVKEYLLERILDGTYVPDLPIPPERELASLLDVNRMTVRRAVEELMYDGYLIRKKGSGTYLTR | -0.2
HMDAEVEHLFRIIAELKEKNVAIIYISHKMDEIFRISDDITVYRDGEYIATDRAENLNVDKVIQLMVGREV | -0.538
HMQISDSGELEKIVLQVIEENPKPAEQVRSGNEKAIGALVGGVMKATQGRADGGEVNRLLRQHLGL | 0.23
HMSLDAAAVASKLIKRLSKSPGRRFALDDLAVDVGLPHEQGRPLVRSALELLVRTQQAVEGPPNVFRLFF | -0.17
HMENIIFDIGFHKGEDTLFYLLKGYRVIAVDADPDLINEWQNIFKKYIENGKLLLLNYVISDT | -1.18
HMDPPYKDKNLHELLLKINNLNILKKDSVIILHRHKKQKEIFPSNFKIIEQKQYGISKIIFLTVL | 0.217
HMRESPYRRVAKFLLLIGTAEAAKIVSRLDQDQVEKVMLELSGIRSVPRDEATVILAEFESLLQQAR | -1.2
HMSRWHEFLNKSEDGMKELDEQNQKVLTLLILQRFYQTPFQAKEDEEFYREFFERLSSVNEILG | -0.283
HMQLTQEAIENLFKITTAKKFREELEKLVVTDSEKKAFAYFTVYHPKLKELPFAILKSVENYTGISI | -0.319
HMERMTSTEILTRDFLTTNSKIVKKSTIEELSEIIHVSPATIIRTVKKMGYSGFSEYKNELINQ | 0.0482
HMQNNITISKEIELRTGPDDTYPTLKKVTAGDNVEMLSKSDTWYEIKTNDSFVGWVPGWSIL | -0.656
HMVLNVMIEEEVHREIIAAISKLPKERRRVVELSMAGFSQEEIAEKMAISVNTVKTIKLRAYRVLRERLKG | -0.208
HMGVQKGKDNALAVQQWIAERDATGDFGEYERRGIINRSALFDELGIPRSSMGSNDQIRQMIEAADVRWF | -0.663
HMAMDYEGFKKSVYALTSIDLNAYKERQMKRRIDTLIAKNKYNGYEDYTAAIKKDKALFEEFVNYLTIN | -0.521
HMGFSLEQFGTDPDLKKIVENAFERIITASEGRIFKSDFSSNNSALPLEIFSFLIAVILLKLSGMN | -0.489
HMTDFDPDGREKLIKVQKALHFNNHQLADALRVGQATFSSYIYGRVAAGVPVRVVKAAEDLLKNSKATV | 0.146
HMGSLNDQVMKYIDALPSAFNKRELDFLIERGVKEFALNGEYLEKAIINEYKLTADTYHRER | 0.129
HMAGTGKVNTGVANVRSGPGTNYEISGKIYADTEVSILETSNGWYKIKFGNLTGWMSGTVLDIK | -0.0124
HMQKTVLAASVYERMKERIMDQYYPPGERLNIDALAIDLAVSPTPIREALARLAAERLITFEAYKGYRVSP | -0.637
HMANKLTSTNLAKQHKMGLSEMYAELMNSGYLIEKDGKYELTPLGISIGGESKPNRYKKGEFYFLWPSDIS | 0.22
HMNSSLLGKRIKSLREDHDLTQKELSLMIGLTPKMISFYENNQRTPPLDILLKLAKIFEVSVDYLIGYA | -0.0642
HMSRLQDAELQAQIDKMAGAMQLRDIPVYVQDIPTINGLAAPDGRVFITQGFIDKYKLGEVSAGEIASVI | 0.316
HMGVRLAPEVDRIPYGQMHPNLKKVKDLYEASYKAYVQALSSGNQALAKEKLEEFQSTKARYQRALSAYT | 0.195
HMEATEFYLEDLTGQMYNDVVNDEKYAGKIVFEKEEVQSDGEEAIGQILNQRPAGNMNVRIGTTVTLVVNA | -0.201
HMKDANIQIGKRLREARLNMNLEKSEIADVLGVTVEHYRKLEAGVMGISVDKVLTLYHKYGIDPTYLITG | -0.712

Sequence | soluble fraction (log2)
HMTSNKTVPYSELKGLISTGKIEYVGIGNTQIRAVSKSGAGIVTYTARRVIPDDTLIPELEKNGIAYGGI | 0.112
HMTEKIRLTVDEAGKNQRVDKYISTLLTQFSRSSIKTWIETGNILLDNTRTKPRTLLSPGQVIDIQPRFED | -0.144
HMQPQLFRVIADDGLNIRSGPGPEYPPVAPMLRKGTQVELLQAGDRWSKVEVVGSTDVEGWVNQRYLQAV | 0.0927
HMYTLGEESDGTVRLLELYDIIKNKNEKIFVVDELDRSLHPNLTFNFVKKYLSIENKSQLIVSTH | -1.11
HMAYLTGFHAIEELIRAGKAKGPLLVANAGPRARTIMSLATDNKIRIDRLGEHELNRLAPGNRGIALYVE | ≥ 0.43
HMDATGDPIADRILQALQLGELTRTQVNNVFQRHLAAARISQALNFLRSLKRADMRMEETAGRSGEVWFAI | -0.254
HMSHQIIIVAVELDPSTERIVYYLSKNGISINVLFFKVFQHGDEQFLSRVWLIDPSETQTNAALA | -0.424
HMPTMTDIPIKIIRSRRRTLAIEVREGGEVIVRAPLYSRKAEIDAFVKAHENWIITKYNLMITKQN | 0.352
HMQFYSGLEARLMDPNTPEVFDDPISLMAFLQQKNISRVELEDNLLLPYLKEMAGQPIPKAELLEIIRK | -2.19
HMLQQNRAVEAEQLARKGLSYAQSNIQQAALWRLVAEATEQQGKVDAALNAKNKAMQLEMAG | 0.353
HMPNQLLELVEMEIRDLLNEYEFPGDDTPIIQGSALKALEDPMGPWGDKIMDLMDAVDSYIPDPE | -1.46
HMPSALGDKIRAARKALKLSLEDLAEKVSSSKSYMWELENRDEPNPGADLLMRIAAALNVTTEHLLGP | -0.0842
HMENYIEQLTAKNSEYIHVVTRELVKIGKSDEEIKAILSDILPQIVAAQDQRVLAKDILGTPSEFTAKYAP | 0.0161
HMQISDSASVKTVVAEAIAANPKAVADFMNGKDTATRYLVGQVMKITKGQAKPELVNQLVLESLAELKEK | 0.226
HMKAGEDAVQKAVLEAVAESAAAVADYKAGSERALNFIVGKVMKKTRGKASAAEVHRLVREEVDR | 0.079
HMINVVDEVIKHLETNIISGFWAPGQKIDSEATLSKQLNVSRASIHTAIQQLIATGVLESFQGKGTFVRS | -0.226
HMADGDIIPEGQRDATLASLAGSMRARGMTEAEILAALQVTNETRVRPPMALADLERIARSIGRYEPGK | 0.0649
HMTELLTPKQRQVFELALREGYYDVPRRTSITEMARLLGVAKSTLSAQMHRMEATVMSTFAEEIRKQ | 0.0506
HMEQAAQPQTGFDPRRLKAGDAVHLLALDQRGVLLEDPKPGAESAPVSVGVAGVRVVVPLREMEALPAG | -0.0942
HMQSDQLSDREREILRLIGSGRTNQEISQELQVSGSTVRTHLQHILDKLGLENRNQAVLYAIRIGLAAPP | -0.372
HMQAGPEDIIRAKLKTAMPEAQIISIRPTPAGLYQVNAKGYESVFVTADGRYLFQGDLLEIQGDRIVNL | -0.714
HMAVDVNKATAAELDSIKGIGPAISAKILEEKKKGGNFKDWNDLVTRVSGVGEANAAKFSSEGLTVGGAS | 0.235
HMRAPIGFRISNRRKSLKISQVALARLVGISPSYLNLIENNKRDVGGALLQRVALHLNIDIDDL | -0.219
HMSAEDQRRASQEAAYRFMQVMAGNEAGFEDAARALFAGDNHRFEVLIQSWPDDVRDHVSLLSVDAFA | -1.78
HMSDIQKGTQINLVNEPLYVSSKTSIVSTYKTGTYYTWGFEANNRIAITNKLENIGVKGQVTGWINKP | 0.0239

From the domain aggregation screens of Martell et al. (2025)
